The values below come from patent publication US20230312755A1 (ANGITIA, published 2023).

For experiment [1], the target named is T1, human Sclerostin (human, UniProt Q9BQB4 24-213).
T1 sequence: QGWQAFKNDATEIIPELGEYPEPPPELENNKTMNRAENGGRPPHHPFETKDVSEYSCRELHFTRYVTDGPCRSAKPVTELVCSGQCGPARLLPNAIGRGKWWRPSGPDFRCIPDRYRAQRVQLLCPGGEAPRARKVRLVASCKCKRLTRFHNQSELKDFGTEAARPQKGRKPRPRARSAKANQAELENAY
The experiment can be described thus: cell-based or functional assay.

The target of experiment [2] is T2, cynomolgus monkey Sclerostin (cynomolgus monkey, UniProt Q9BG78 24-213 (Chlorocebus aethiops entry)).
T2 chain: T1 sequence with E26D, P70Q, E129A, T161P, S178G
The experiment can be described thus: BLI (Gator), antibody on anti-hFc biosensor, Sclerostin as analyte, 1:1 global fit. How it is done: (§1) The binding affinity of humanized anti-Sclerostin antibodies to human and cynomolgus monkey Sclerostin were determined with bio-layer interferometry using a Gator instrument (Probe Life). Antibodies were immobilized on an anti-hFc biosensor, using a […]. Serial dilutions of human Sclerostin and cynomolgus monkey Sclerostin from 4 μg/ml by two folds in kinetics buffer (PBS, pH 7.4, 0.05% Tween-20, 0.2% BSA, 10 μM biotin) were used as the analytes. Affinity (KD) and kinetic parameters (Kₒₙ and Koff) were calculated from a global fit (1:1) of the data using the Gator software.

Experiment [3] concerns the target T1, human Sclerostin. The experiment is described as above. How it is done: as §1
The next experiment addresses T3, Pep2 (biotinylated (NHS-biotin), site not given).
T3 construct: also called Pep2 mSOST
T3 peptide: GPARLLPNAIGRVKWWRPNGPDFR
The experiment can be described thus: BLI (Gator), biotinylated peptide on streptavidin biosensor, 93B1B7 as analyte. How it is done: (§2) The peptides were biotinylated (NHS-Biotin Reagents, Thermo, #21343) and immobilized on Streptavidin biosensor, using a 0.5 μg/ml solution.

The target of a further experiment is T4, Pep3 (also: biotinylated (NHS-biotin), site not given here).
T4 construct: also called Pep3 h/mSOST
T4 peptide: GPARLLPNAIGR
Described as above. As for the experimental part: as §2

The target of another experiment is T5, Pep10 (also: biotinylated (NHS-biotin), site not given here).
T5 construct: also called Pep 10 mSOST
T5 peptide: KWWRPNGPDFR
The experiment is described as above. How it is done: as §2

A further experiment deals with T6, Pep7 (also: biotinylated (NHS-biotin), site not given here).
T6 construct: also called Pep7 hSOST
T6 peptide: KWWRPSGPDFR
Described as above. How it is done:
as §2

The target of another experiment is T7, Pep8 (also: biotinylated (NHS-biotin), site not given here).
T7 construct: also called Pep8 mSOST
T7 peptide: PNAIGRVKWWR
Described as above. As for the experimental part:
as §2

The target in a further experiment is T8, Pep9 (also: biotinylated (NHS-biotin), site not given here).
T8 construct: also called Pep9 mSOST
T8 peptide: IGRVKWWRPNGP
Described as above. As for the experimental part: as §2

For a further experiment, the target named is T9, Pep4 (also: biotinylated (NHS-biotin), site not given here).
T9 construct: also called Pep4 hSOST
T9 peptide: RLLPNAIGRGK
The description is as above. How it is done:
as §2

The target in experiment [4] is T10, His-tagged human Sclerostin (NCBI reference No. NP_079513.1) (human, UniProt Q9BQB4 24-213).
T10 construct: also called mouse His-tagged human Sclerostin; not shown: His tag
T10 sequence: T1 sequence
The experiment can be described thus: ELISA, plate coated with His-tagged human Sclerostin. As for the experimental part: The ability of antibodies to specifically bind Sclerostin was determined by an ELISA capture assay. Plates were coated, in a 96-well half-area, with 100 μl/well of mouse His-tagged human Sclerostin (NCBI reference No. is NP_079513.1) [[…]], in coating buffer (PBS, pH 7.4), and incubated at RT for one hour, or 4° C. overnight. The plates were washed once with 100 μl/well of washing solution (PBS containing 0.2% Tween20, BIO-RAD). Plates were then incubated in blocking solution (PBS containing 1% BSA, 1% goat serum and 0.5% Tween20; 100 μl/well) for one hour at room temperature (RT). Anti-Sclerostin antibodies at various concentrations (1000, 333.3, 111.1, 37.0, 12.3, 4.1, 1.4, 0.5, 0.15, 0.05 ng/ml), a positive control antibody Romosozumab or non-Sclerostin related IgG (human or rat IgG, negative control), were then added to each well in 20 μl/well of blocking solution, and plates were incubated at RT for one hour. NeutrAvidin HRP (Pierce, Catalog #31001) diluted in blocking solution (1:50,000 dilution) was added at to each well ([…]), and the plates were incubated at RT for one hour prior to three washes with […] of washing solution. SuperSignal ELISA Femto (ThermoFisher Scientific, Catalog #37074) working solution was added to the plates ([…]), and the signal was read using a luminometer at 425 nm.
Background: An ELISA detects its analyte on a solid surface through an enzyme-linked reagent.

The target of another experiment is T11, pep5 (human, also: biotinylated (NHS-biotin), site not given here).
T11 construct: Chemically synthesized peptide of the second loop of human Sclerostin, biotinylated and immobilized on a streptavidin biosensor
T11 peptide: PNAIGRGKWWR
Description: BLI (Gator), biotinylated peptide on streptavidin biosensor, 93B1B7 5 µg/ml as analyte. How it is done:
as §2

The next experiment deals with T12, pep6 (human, also: biotinylated (NHS-biotin), site not given here).
T12 construct: Chemically synthesized peptide of the second loop of human Sclerostin, biotinylated and immobilized on a streptavidin biosensor
T12 peptide: IGRGKWWRPSGP
The description is as above. How it is done:
as §2

Another experiment concerns the target T13, Pep1 (human, biotinylated (NHS-Biotin Reagents)).
T13 construct: Chemically synthesized peptide of the second loop of human Sclerostin, biotinylated and immobilized on a streptavidin biosensor; also called hScl 110-133
T13 peptide: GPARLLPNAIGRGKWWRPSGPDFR
The description is as above. How it is done: as §2

Experiment [5] addresses T14, human RANKL (human, UniProt O14788 140-317, limits assumed).
T14 construct: Analyte in BLI; also called hRANKL; TNFSF11
T14 sequence (looked up): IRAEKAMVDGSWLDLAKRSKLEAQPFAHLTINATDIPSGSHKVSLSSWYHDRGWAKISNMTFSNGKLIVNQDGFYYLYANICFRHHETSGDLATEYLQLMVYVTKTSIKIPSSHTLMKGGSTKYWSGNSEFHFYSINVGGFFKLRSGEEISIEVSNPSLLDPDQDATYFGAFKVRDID
Description: BLI (Gator), antibody on anti-hFc biosensor, antigen as analyte, 1:1 global fit. How it is done:
(§3) Binding kinetics and affinities of anti-Sclerostin×anti-DKK1 and anti-Sclerostin×anti-RANKL bispecific antibodies were measured with Gator (Probe Life) bio-layer interferometry (BLI). Antibodies were immobilized on an anti-hFc biosensor, using a 5 μg/ml solution. Serial dilutions of sclerostin (from 1 μg/ml), DKK1 (from 2 μg/ml), or RANKL (from 4 μg/ml) by two folds in kinetics buffer (PBS, pH 7.4, 0.05% Tween-20, 0.2% BSA) were used as the analytes. Affinity (KD) and kinetic parameters (Kₒₙ and Koff) were calculated from a global fit (1:1) of the data using the Gator software.

The target of experiment [6] is T1, human Sclerostin. The description is as above. As for the experimental part:
as §3

Experiment [7] addresses T14, human RANKL. Description: BLI (Gator), antibody on anti-hFc biosensor, antigen as analyte; koff at LOD, KD estimated. How it is done: as §3
Experiment [8] deals with T1, human Sclerostin. Described as above. How it is done: as §3

Where a chain is given by its changes, count along the chain named. Ends that are not written are not given here.

As a reminder, the Kd is the free concentration of one partner at which half of the binding sites on the other are occupied at equilibrium, for simple one-to-one binding. As a reminder, the koff is a measure of how fast the partners let go of each other. In general, kon refers to the second-order rate constant of association. One may read the EC50 as the concentration giving half of the maximal effect.

B1: 93B1B7 (antibody, V domains shown)
VH: QAQLQQSGAELVRPGASVTLSCKASGYTFTDYEIHWMKQTPVHGLEWIGAIDPETGGTAYNQKFKGKAILTADRSSSTAYLELRSLTSEDSAVYYCYSYDYVTYWGQGTLVTVSA
VL: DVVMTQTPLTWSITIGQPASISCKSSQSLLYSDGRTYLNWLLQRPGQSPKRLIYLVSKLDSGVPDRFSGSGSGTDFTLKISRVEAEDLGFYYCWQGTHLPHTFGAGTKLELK
notes: Murine monoclonal antibody from a hybridoma; also called mAb 93B1B7; Antibody 93B1B7
Turning to B1, the “EC50, Sclerostin-neutralisation activity in HEK293/TCF/LEF/Wnt1 cells (luciferase reporter)” value with human Sclerostin [1] came to 57.9 nM. The Kd turned out to be 0.018 nM in experiment [2] and 0.051 nM in the experiment with human Sclerostin [3]. For the same molecule, the koff in experiment [2] stood at 6.5e-05 s⁻¹; with human Sclerostin [3], 8.4e-05 s⁻¹. Also, the kon in experiment [2] turned out to be 2.2e+06 M⁻¹ s⁻¹; with human Sclerostin [3], 1e+06 M⁻¹ s⁻¹. Further, the binding result in the experiment with Pep2, with Pep3, in the experiment with Pep10, with Pep7, in the experiment with Pep8 and with Pep9 was “no binding (tested: 5 µg/ml)” throughout. Besides, the binding result with Pep4 was “no binding (tested: 5 µg/ml)”; in the experiment with pep5 it was “binds”; with pep6, “binds”; with Pep1, “binds”. In experiment [4], this molecule registered an EC50 of 0.04 nM.

B2: BAP0069 (bispecific antibody, human IgG4 S228P, kappa, F234A L235A)
heavy: EVQLVQSGAEVKKPGASVKVSCKASGYTFTDYEIHWVRQAPGKGLEWMGAIDPETGGTAYNQKFKGRVTMTTDTSTSTAYMELRSLRSDDTAVYYCYSYDYVTYWGQGTTVTVSSASTKGPSVFPLAPCSRSTSESTAALGCLVKDYFPEPVTVSWNSGALTSGVHTFPAVLQSSGLYSLSSVVTVPSSSLGTKTYTCNVDHKPSNTKVDKRVESKYGPPCPPCPAPEAAGGPSVFLFPPKPKDTLMISRTPEVTCVVVDVSQEDPEVQFNWYVDGVEVHNAKTKPREEQFNSTYRVVSVLTVLHQDWLNGKEYKCKVSNKGLPSSIEKTISKAKGQPREPQVYTLPPSQEEMTKNQVSLTCLVKGFYPSDIAVEWESNGQPENNYKTTPPVLDSDGSFFLYSKLTVDKSRWQEGNVFSCSVMHEALHNHYTQKSLSLSPGKGGGGSGGGGSGGGGSEIVLTQSPGTLSLSPGERATLSCRASQSVRGRYLAWYQQKPGQAPRLLIYGASSRATGIPDRFSGSGSGTDFTLTISRLEPEDFAVFYCQQYGSSPRTFGCGTKVEIKGGGGSGGGGSGGGGSGGGGSEVQLLESGGGLVQPGGSLRLSCAASGFTFSSYAMSWVRQAPGKCLEWVSGITGSGGSTYYADSVKGRFTISRDNSKNTLYLQMNSLRAEDTAVYYCAKDPGTTVIMSWFDPWGQGTLVTVSA
light: DVVMTQSPLSLSVSPGERASLSCKSSQSLLYSDGRTYLNWYLQKPGQSPQRLIYLVSKLDSGVPDRFSGSGSGTDFTLKISRVQSEDVGVYYCWQGTHLPHTFGGGTKVEIKRTVAAPSVFIFPPSDEQLKSGTASVVCLLNNFYPREAKVQWKVDNALQSGNSQESVTEQDSKDSTYSLSSTLTLSKADYEKHKVYACEVTHQGLSSPVTKSFNRGEC
notes: Anti-RANKL scFv (VL-VH, Denosumab) fused to the C-terminus of the heavy chains of the anti-Sclerostin full length antibody (hAb-1)
For B2, the association rate constant (kon) in the experiment with human RANKL [5] is 86700 M⁻¹ s⁻¹; with human Sclerostin [6] it was 757000 M⁻¹ s⁻¹. In addition, the Kd with human RANKL [7] and with human Sclerostin [8] was ~0.01 nM throughout.
